The results in this text go back to patent US20230027540A1.

For the assay, the target named is IL-12 receptor complex composed of IL-12 receptor β1 (IL-12Rβ1) and IL-12 receptor β2 (IL-12Rβ2) (human) (UniProt P42701). The assay can be described thus: cell-based or functional assay.
Chain of IL-12 receptor complex composed of IL-12 receptor β1 (IL-12Rβ1) and IL-12 receptor β2 (IL-12Rβ2) (human) (Q99665 24-862, chain 2 of 2, other chains not shown): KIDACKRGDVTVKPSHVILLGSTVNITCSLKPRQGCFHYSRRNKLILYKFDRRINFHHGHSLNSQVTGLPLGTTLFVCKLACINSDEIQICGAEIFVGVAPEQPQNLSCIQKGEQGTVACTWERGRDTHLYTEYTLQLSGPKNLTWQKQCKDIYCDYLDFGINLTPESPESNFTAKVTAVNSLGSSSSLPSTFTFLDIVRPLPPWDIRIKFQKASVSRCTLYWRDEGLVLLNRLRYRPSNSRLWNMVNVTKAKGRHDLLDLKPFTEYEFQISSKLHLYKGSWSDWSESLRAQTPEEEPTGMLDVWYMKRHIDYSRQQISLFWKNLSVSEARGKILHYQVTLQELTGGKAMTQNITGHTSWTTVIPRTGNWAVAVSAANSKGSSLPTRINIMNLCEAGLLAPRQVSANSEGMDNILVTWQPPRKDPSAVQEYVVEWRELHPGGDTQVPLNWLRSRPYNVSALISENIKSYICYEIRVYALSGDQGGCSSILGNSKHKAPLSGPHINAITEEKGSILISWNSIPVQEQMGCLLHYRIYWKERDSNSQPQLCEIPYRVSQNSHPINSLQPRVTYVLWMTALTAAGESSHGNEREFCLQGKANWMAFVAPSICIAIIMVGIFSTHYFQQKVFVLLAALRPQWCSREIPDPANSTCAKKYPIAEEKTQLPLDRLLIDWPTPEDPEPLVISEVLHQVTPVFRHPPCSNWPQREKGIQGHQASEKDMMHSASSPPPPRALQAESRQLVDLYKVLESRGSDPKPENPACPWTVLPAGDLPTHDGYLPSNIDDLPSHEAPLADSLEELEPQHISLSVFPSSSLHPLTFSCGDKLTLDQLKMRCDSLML
As for “IL-12-Fc fusion comprising IL-12p35(D55Q/N151D)”, the fold reduction in potency (EC50 of STAT4 phosphorylation) relative to WT IL-12-Fc XENP27201 stood at 2 fold.

For the substance “IL-12-Fc fusion comprising IL-12p35(E153Q)”, the fold reduction in potency (EC50 of STAT4 phosphorylation) relative to WT IL-12-Fc XENP27201 was greater than 2 fold.

On to “IL-12-Fc fusion comprising IL-12p40(E235Q)”, for which the fold reduction in potency (EC50 of STAT4 phosphorylation) relative to WT IL-12-Fc XENP27201 was greater than 2 fold.
